From PMC4470706 (Journal of nuclear medicine : official publication, Society …, 2015)

Assays:
in vivo = test: in vivo; set-up: species or system mice; settings: male, athymic nude (outbred) CrTac:NCr-Foxn1nu, mouse, iv, 11.1 MBq, total radioactivity, Activity concentration
PC-3 tumor–bearing mice = settings: mouse, in vivo

CC(C)C[C@H](NC(=O)C[C@H](O)[C@H](CC(C)C)NC(=O)[C@H](Cc1c[nH]cn1)NC(=O)CNC(=O)[C@@H](NC(=O)[C@H](C)NC(=O)[C@H](Cc1c[nH]c2ccccc12)NC(=O)[C@H](CCC(N)=O)NC(=O)[C@@H](Cc1ccccc1)NC(=O)CCOCCOCCOCCOCCNC(=O)CN1CCN(CC(=O)O)CCN(CC(=O)O)CCN(CC(=O)O)CC1)C(C)C)C(N)=O [^90Y-DOTA-AR, metal not drawn]
tissue uptake at 1 h (in vivo; PC-3 tumor): 3.62 ± 0.95 %ID/g | tissue uptake at 4 h (in vivo; PC-3 tumor): 2.92 ± 0.57 %ID/g | tissue uptake at 24 h (in vivo; PC-3 tumor): 0.45 ± 0.04 %ID/g | tissue uptake at 48 h (in vivo; PC-3 tumor): 0.1 ± 0.05 %ID/g | tissue uptake at 1 h (in vivo; kidney): 1.76 ± 0.61 %ID/g | tissue uptake at 4 h (in vivo; kidney): 0.78 ± 0.14 %ID/g | tissue uptake at 24 h (in vivo; kidney): 0.17 ± 0.02 %ID/g | tissue uptake at 48 h (in vivo; kidney): 0.07 ± 0.01 %ID/g | tissue uptake at 1 h (in vivo; liver): 0.21 ± 0.05 %ID/g | tissue uptake at 4 h (in vivo; liver): 0.12 ± 0.06 %ID/g | tissue uptake at 24 h (in vivo; liver): 0.04 ± 0.01 %ID/g | tissue uptake at 48 h (in vivo; liver): 0.02 %ID/g | Radiation dose to kidney (PC-3 tumor–bearing mice): 0.06 ± 0.01 Gy/MBq | Radiation dose to kidney, range (PC-3 tumor–bearing mice): 0.05–0.08 Gy/MBq
